The source of these data is publication PMC9072662.

The test has as its target Tetrameric photosystem I from Chroococcidiopsis sp. TS-821 isolated with DDM (Chroococcidiopsis sp. TS-821 (endogenous in TS-821 thylakoids)).

As a reminder, the stoichiometry N is a count of units in the complex or per binding partner. On to “Tetrameric photosystem I from Chroococcidiopsis sp. TS-821 isolated with DDM (complex)”, for which the stoichiometry N turned out to be 4.
